Data as given in article PMC11482875 (bioRxiv, 2024).

Molecular target: the molecule itself
Assay: SEC-MALS

B1: miniTRIM37 RBhcc B-box-2 mutant (other)
chain: MDEQSVESIAEVFRCFICMEKLRDARLCPHCSKLCCFSCIRRWLTEQRAQCPHCRAPLQLRELVNCRWAEEVTQQLDTLQLCSLTKHEENEKDKCENHHEKLSVFCWTCKKCICAQCADWGGMHGGHTFKPLAEIYEQHVTKVNEEVAKLRRRLMELITERNQVAKRVPKAPPEEKEALIARGKALGEETELLESLLQEVEHQLRSCSKSELISKSSEILMMFQQVHRK
- stoichiometry N: 2
